The data set in a line: label from the status in PepcDB records.
For the sequence “MPKIAKELSALEVKRLTCRIDPETGEATEVRYPVGGVSGLLLRITPSGSRQWILRAKVGNRRPDMGLGPYPEISLAQARDKAREMKEKIRSGIDPLEEKRTLKRALLAEQISTLTFQKAMEKYIKMKAKEFRNPRQEKQWTNSLNTYAIPHLGKLPVREIDLPHIKQVLDPIWETKTETANRVRARIENILGWCAIHGYRSAENPARWQGYLDEVYPSPEKIKKRGHFAALPVDDMPEFMRDLKKRTGTAARALEFLILTASRTNEVIGDKRIGKAGVTWQEIDLARKVWTVPADRMKSEKIHRVPLTDSAIELLKGMGEGSPEDLIFPGPKGGIPSNNFLTALLKRMERPITAHGFRSTFKDWARERTAYADEVSELALAHVNSDATRAAYARSELIDKRRLMMADWEQFCMHGETKKESGKVVAIGEGKG”, the protein production entry is reported as “failed”.
“MRRLNRKNNEALKKLNDRQRKVLYCIVREYIENKKPVSSQRVLEVSNIEFSSATIRNDMKKLEYLGYIYQPHTSAGRIPTDKGLRFYYEEMLKISKETSEADLAVETFKSMPLADPEKVLFLAGNLLARLTEGYVLIERPNTRDLKILRVMLIPVSEDYLIFSILTEFGVSKVTPIKTQERLNWEEIERQLNFLLRGRTVGEVLMGKIESLKGSGFLRLIESLIGETVERYLDAGLENLLKDETLTLEDIRNLLEEVKDQKFLESLVGEGITVRIGREIGRKKLEKFAVFSGKYFKGESPIGSVYLFTSKVTKYDRNHRVFEYILNRLSEYFTSTSRR”: the protein production entry is on record as “not failed”.
As to “MAKPNIDELNQILTSYQNTINDTLQLFEQVPSPTQDKLYWNDVLQISDHLSKQATIVGMLWITGEPPKAEAMKETMEAYFNALQGFLLHCHGSMVGAGTTLSSTIHASVKQIVDSSFRLLQGSVSLYEGSYEKGRKPTIPQLAGAVWEACSNLKNVPETNIKAIGRAMAHVAVSMKDVLREMKELKPASSSPDHNVSTNSDDDDLGDELSPEEFEVAKMVADIVSETLVVIKELIRAITCMIKLENPKDNSEFVDSFEKLLKLCQGIGVQIDELGACVYPPQEFGLMKQTVENMRESIGEIESDVKSSKNSSSEALSGSCRRLQSLIEHMVTELDTRIEAEVVYKMQNVTL”, the protein production entry is recorded as “failed”.
The entry for “MNSPAHALTKPRRRTPRRAVRLARRALVGLTAAAILAGTGMGWVTYHGALDGITTSNALAGESGSVGDTENILIMGLDSRLDQHGNPLPEDVYQALHAGDETVGGYNANVLIVVHLPGDGGPATAFSIPRDDYVDLAGCPSGICKGKVKQAYGFAYQAEMEATESEEEDPATREQKAREAGRKAEIATVRNLLGIPIDHFVEVTLGAFFEIAKAVAPITVCLNDDTSDPYSGADFRKGVQQIDAAQAMAFVRQRRDINDENFTDLDRTRRQQAFLAALVSALRQSGALSSPSKLRGLLDVTKQNVALDAGFDLASFTKRASALTDAPPTLYTLPIKEFGQNAYGEDINIIDVPTIRKIVHDLVSKDDPATTTATPDKPELNGHGATLDVINGSTYTGLAAKLQTTFAADNFTEGQIGDAEALEPATTIDYGPGADAAAHSLATELGVTATPSDWVLADTVRLTIGTDFPGTDYLGADMFTSTTSGASESESYGPSETAELTPITTVAATATGTYTPAPTDLSQMTASGIPCVK” is “failed”.
In the case of “MACHGFLGKPTPKSFGRHHKHARKNRNHQSRCLAAAVAAAGSIFTSLNMSIFTFHNRLLRCVSRFLRLATTSSATPTRRPTMKQGYKKLHKREPLIRRNDKKRTIFLDLDETLVHSTMEPPIRVNVDFMVRIKIEGAVIPMFVVKRPGVTEFLERISKNYRVAIFTAGLPEYASQVLDKLDKNRVISQRLYRDSCTEVNGRYAKDLSLVAKNDLGSVLLVDDNPFSYSLQPDNGVPIKPFMDDMEDQELMKLAEFFDGCYQYEDLRDAAAELLSSKLI”, the protein production result is on record as “failed”.
The entry for “MPFEIGTMPIMSIDPKLLEVLACPQDKGPLKYLEAEQVLVNERLEIAYRIDDGIPVMLVDESIAWPPAEKLEHHHHHH” is “failed”.
The value for “METALVSIIMPMYNAGKFLSKSIESVLEQTYQNWELLLIDDGSKDDSIDIALAFMEKDSRIFLLKNEQNMGIAKTRNKGIEASKGQYIAFLDSDDLWLPNKLEVQVKWMEEKKLLFTCSSYFVCNENGNITHERNFSEGPQTYQDLLKTNTIGCLTVVVESNLLKRHLMPDLKHEDYATWLNILKEINTVYFINEKLAIYRKLTTSTSSNKWNTISWVWKILRQNEQFSVIKSSFYLMRFLFYTTFKYAKNELEHHHHHH” was “not failed”.
For “MKTIGLLGGMSWESTIPYYRLINEGVKARLGGLHSASLVLHSVDFHDIEACQSAGDWDRAGEILAEAAVGLQQAGAEGIVLCTNTMHKVADAIAARCQVPFLHIADATGRAIAAKGQRRVALLGTRYTMEQTFYRGRLQEQFAIETLIPEADDRAQINQIIFDELCLGTFSEASRDYYLQTIAALAEQGAEGVIFGCTEIGLLVPAELSPLPVFDTAAIHAEDAVNFMLSAGPTPAA”, the protein production entry was “failed”.
The entry for “AIACHTQVGGSMQVPEPRRPFTCSSENNVTNSFFEEAYSASFRSKLYNMVEEIEQERAKYCNSANLSYMDAFGVEKESIEEDYNKEEDRDSLCSVDIADNSETSNRSSEDLLCDNCSKSLMFLNNVFKWNDLLFCNLDCYTSAILKNQKGADVKHRVACSLSPTWHKDCVHSVQD” is “not failed”; for “MEFLGSLLTFLIDIVGSFGYFGILLIVGLEYACFPLPSEVVLTFFGLSASQGEFSLIGVIIFSIIGGLLGSLICYAIGYYGGVPLQEWLGRKFPSSQKSMLALNKWFKKYGKPAVLLARIVPLTRTYVSLLAGAEKFSLKYFILYSSLGISIWNIFLVSLGYFIGDNLPLINSIMEKYTFVTLAILIIAVIIFIYLKFFKKEKNTSK” it is “failed”.
The entry for “MTFEEFKDRLFALAKKNGVEVQISFLETREFSLRLANGDLDQYTDAGKFNVEIKVLKDGKTGTFRTQVLENPEKCFEEALSNLQVKDSEEKEYFFEGGKEYREMETYVGRFEKLSVKEKMDMAKKAHESAAKDERVVMVPTVMYKDMVIKKIITNTLGLDVESQMDGGFLFAMAIARDANPRSGSWYELARTPEDLNPEEIGKRAAEEAISLIGSKTIPSGKYPVLMRNTALLDLMEMFIPMISAENVQKNLSPLKGKLGEQVGNPAVSIKDLPYHPKGLSSTPFDDEGVPTTEKFVLENGVLKTFLHNLKTARKEGVEPTGNGFVGGIRPVNLMLMPGEKSFEELLKEMDRGVVITEVEGMHAGANSISGEFSLFAKGYWVENGEIAHGVEDITISGNFLDLLRKIVLVGNDVKVSQHTIAPSVLVEVLDVAGK” is “not failed”; for “MVIQEGFSFGNFIIDVFSIFLFILWFWLLITISGDLFRRHDVSGFAKVLWVIFLIVLPYIGVFAYILTQGRGMAERNQERAREARNELRQVVGFSVADELEKLDRLKASGSISEDEFKRLRAKLVE” it is “failed”.
For the sequence “MIYRKATEKDIAQLVELRKKQLEDEGIAPINNIDTELTHFFELSFKKNSFISWISEEDNEIIATSGVCFYKYPPSYLNPSGKVAYITNMYTKYEYRSRGIALALLKLVILEAKKRDYLFLRLHASDMGRPIYEEIGFKPFDDFMEMNLSLNRNGELEHHHHHH”, the protein production entry was “not failed”.
The entry for “MLARVLILLMFSLCAWPARAHALTIYTEEWPPITFQRNGIADGMAVEVVREIQGRIHDNSPIEVVPWARGYKDLLTTPGVMLFTVGRSEAREKQMTLLGPIAVSQTVLLARKGEAAKLLALGAGIYQRPVGAYRGSIFADAASAAGFVEVDLAPTPQLTAQKMLMGRYDMWVEGGFVVASVLKDIHQPANAVEVVRVLESLELYLAFSRGTSAEEVKRWQDGFAAIKKDGTFKRIYNKWLPRDAPPMEMKLLGVPPGTAR” is “failed”; for “PRRWPILLIFPGSGFIQMTEREAEPIALAFSAQGYQTMVVEYNLLDRGPVYPNAIDVGLTALKYAKNQGPPHYGDANKTILMGFSAGSHVAALTNAMGNNTEYLKTHGFGDSPLTSRLQVLGYPVIDLAAGFPKSREEAFKISPDEQYWASQNLVTDQTPPTFLWNTCADAVVPTMNSLLYAEALARHHVEYDIHTFTHGKHGLCLSTVETSRYNYPEDIEPRAANWVPLVLSWLSEMLD” it is “failed”; for “MAGQSDRKAALLDQVARVGKALANGRRLQILDLLAQGERAVEAIATATGMNLTTASANLQALKSGGLVEARREGTRQYYRIAGEDVARLFALVQVVADEHLADVAVAAADVLGSPEDAITRAELLRRREAGEVTLVDVRPHEEYQAGHIPGAINIPIAELADRLAELAGDRDIVAYCRGAYCVMAPDAVRIARDAGREVKRLDDGMLEWRLAGLPVDEGAPVGHGD” it is “failed”.
Turning to “MGISNWQPTMRAACWMSGALVSLLAMAVATRELSAHVSVFQILFFRSACGLLIIVPLVWRAGWRKVATARPGLHVLRNATHFLAQYGWVYGIAFIPMAEVFAIEFTVPVWTALLAAVLLGERLTAARLLAVALGLAGVFVIVRPGSGMIHPAALAVLLGAVAFALAYIMTKMLARTETPLCILFYMTLVQLPLGLAPALANWSSPPPHVWPWILVVGTMGLATHYCLARAMALADATVVVPLDFLRLPLIAVVGAVFYGEAIEPLLFLGAGMILAGNLYSILAERRRPAMPRAARDGSH”, the protein production entry is reported as “failed”.
Regarding “MAKLHITTWGCQMNEYDSSKMADLLNSTHGLELTDKPEEADILLLNTCSIREKAQEKVFSQLGRWKNWKKDKPDLIIGVGGCVASQEGEHIRERAPFVDIVFGPQTLHRLPEMINQIRSGDRAVVDISFPEIEKFDRLPEPKAEGPTAFVSIMEGCNKYCSFCVVPYTRGEEVSRPVDDVLFEIAQLAEQGVREVNLLGQNVNAYRGETFDGGICTFAELLRLVAAIDGIDRLRYTTSHPIEFTDDIIEVYRDTPELVSFLHLPIQSGADRVLTMMKRNHTALEYKAIIRKLRAVRPNIQISSDFIVGFPGETAEDFEQTMKIIEQVNFDMSFSFIYSARPGTPASDLPDDVSENEKKDRLAHLQQRINHQAMQFSRLMLGTEQRILVEGPSKKDIMELTGRTETNRVVNFIGTPNMIGKFVDIKITDVYSNSLRGEVIRTEDQMGLRIVESASSVIARTRKEDDLGVGKYAVNLLEHHHHHH”, the protein production result was “failed”.
The entry for “KRVFGFVSAKGGDGGSCIAANFAFALSQEPDIHVLAVDISLPFGDLDMYLSGNTHSQDLADISNASDRLDKSLLDTMVQHISPSLDLIPSPATFEKIVNIEPERVSDLIHIAASFYDYIIVDFGASIDHVGVWVLEHLDELCIVTTPSLQSLRRAGQLLKLCKEFEKPISRIEIILNRADTNSRITSDEIEKVIGRPISKRIPQDEDAMQESLLSGQSVLKVAPKSQLSKTIVDWALHLNGVSRPNKRSIWERLKIK” is “not failed”; for “MAQKENSYPWPYGRQTAPSGLSTLPQRVLRKEPVTPSALVLMSRSNVQPTAAPGQKVMENSSGTPDILTRHFTIDDFEIGRPLGKGKFGNVYLAREKKSHFIVALKVLFKSQIEKEGVEHQLRREIEIQAHLHHPNILRLYNYFYDRRRIYLILEYAPRGELYKELQKSCTFDEQRTATIMEELADALMYCHGKKVIHRDIKPENLLLGLKGELKIADFGWSVHAPSLRRKTMCGTLDYLPPEMIEGRMHNEKVDLWCIGVLCYELLVGNPPFESASHNETYRRIVKVDLKFPASVPTGAQDLISKLLRHNPSERLPLAQVSAHPWVRANSRRVLPPSALQSVA” it is “failed”; for “GKVIVLDAGHGGPDGGAVGGKDIVEKDITLEITKKVQDYLQEQGALVILTREGDYDLAQKDTKSYSRRKAEDLKKRVEIINKPDVDFFASIHLNALTSSGSKGAQTFYYRSSIENERAAKFIQAELRTSLENTNRSAKTISHVYLLKYAKTPGALIEAGFLSNVNERYMLNSEKYQQKVAAAVYRGILRYFTEKGNPPE” it is “failed”.
The value for “MAFDAARYVHRYYASLAPAPGNEYPRLRAWEYLWEYVWDPSRSWDDLTAPEQLDTTALHLGFYLANWGMFRGSSGLLQNSNLDLMKALARQLFSGAGPELFELSLVDFAGNGARLAHNRKLLETVLGSMDALSSRVSWTDTLKSKILLGVWGEFPALDRHYVAACRALYPRRGLTSVNGGTLTALHRLIGEERLSFPRLETARKGLLYPTGRLADMAFFQYGLENALEHHHHHH” was “not failed”.

The record behind these values is a protein production outcome set (Wang et al. 2014).
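Further: failed if final PepcDB status was selected cloned or expressed and not failed if soluble or beyond.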
